For this experiment, the target named is HRP-conjugated protein-A (UniProt P38507 37-477, HRP conjugate). Briefly: ELISA: HRP-protein A added to immobilized biotinylated CRF in the absence of CRFBP-Fc. An excerpt: Biotinylated CRF was immobilized on an avidin-coated ELISA plate. […] OD=optical density.
For orientation: In an ELISA, binding on a coated surface is turned into a signal by an enzyme label.

Where no end group is shown, it is not given here.

B1: Biotinylated CRF (corticotropin-releasing factor) (peptide, UniProt P06850 154-194, looked up)
peptide: SEEPPISLDLTFHLLREVLEMARAEQLAQQAHSNRKLMEII
modifications: ends and bridges not checked; also: biotinylated, site not given here
notes: Immobilized on an avidin-coated ELISA plate; also called corticotropin-releasing hormone; CRH
On to B1, for which the binding result was “no binding”.
